Tested on: CCCCCCCCCCCCCCCC(=O)Oc1ccc([N+](=O)[O-])cc1
Assay: initial-rate hydrolysis of pNPP, p-nitrophenol release, Michaelis-Menten fit
Type: biochemical, Thermomyces lanuginosus
Conditions: 37 °C, pH 9.0, Tris-HCl 100 mM, apparent Km, pNPP 0.25-10 mM
Text: initial-rate hydrolysis of pNPP, p-nitrophenol release, Michaelis-Menten fit on TLL (Thermomyces lanuginosus lipase)

Substance	Km [µM]	Vmax [µmol/min/mg]	kcat [s⁻¹]	kcat/Km [M⁻¹ s⁻¹]
TLL (Thermomyces lanuginosus lipase) (Thermomyces lanuginosus; K46S)	310 ± 20	681	1380 ± 22	4.48e+06 ± 157000
TLL (Thermomyces lanuginosus lipase) (Thermomyces lanuginosus; D49N)	220 ± 20	396	777 ± 5	3.503e+06 ± 31000
TLL (Thermomyces lanuginosus lipase) (Thermomyces lanuginosus; P51S)	290 ± 30	668	1354 ± 9	4.747e+06 ± 28000
TLL (Thermomyces lanuginosus lipase) (Thermomyces lanuginosus; A52P)	240 ± 20	503	1036 ± 4	4.383e+06 ± 42000
TLL (Thermomyces lanuginosus lipase) (Thermomyces lanuginosus; D49R)	360 ± 10	828	1900 ± 21	5.24e+06 ± 118000

— article PMC10706272, “Improving the Thermostability of Thermomyces lanuginosus Lipase by Restricting the Flexibility of N-Terminus and C-Terminus Simultaneously via the 25-Loop Substitutions” (International Journal of Molecular Sciences, 2023)
